B1: S. cerevisiae Abp1 (full length; SH3 domain 535-592 mutated) / Hua2 (parent complex)
chain 1: MALEPIDYTTHSREIDAEYLKIVRGSDPDTTWLIISPNAKKEYEPESTGSSFHDFLQLFDETKVQYGLARVSPPGSDVEKIIIIGWCPDSAPLKTRASFAANFAAVANNLFKGYHVQVTARDEDDLDENELLMKISNAAGARYSIQTSSKQQGKASTPPVKKSFTPSKSPAPVSKKEPVKTPSPAPAAKISSRVNDNNDDDDWNEPELKERDFDQAPLKPNQSSYKPIGKIDLQKVIAEEKAKEDPRLVQKPTAAGSKIDPSSDIANLKNESKLKRDSEFNSFLGTTKPPSMTESSLKNDDDKVIKGFRNEKSPAQLWAERKAKQNSGNAETKAEAPKPEVPEDEPEGEPDVKDLKSKFEGLAASEKEEEEMENKFAPPPKKSEPTIISPKPFSKPQEPVKAEEAEQPKTDYKKIGNPLPGMHIEADNEEEPEENDDDWDDDEDEAAQPPLPSRNVASGAPVQKEEPEQEEIAPSLPSRNSIPAPKQEEAPEQAPEEEIEEEAEEAAPQLPSRSSAAPPPPPRRATPEKKPKENPWATAEYDYDAAEDNELTFVENDKIINIEFVDDDWWLGELEKDGSKGLFPSNYVSLGN
chain 2: MQQTKFGKMYLDHDSVVEYSEDEIVEADRITLGYKKRLSMIENQMRHLLEDFSLDVQQIEPILADLQKYYDAFLQLLQKRNKSLQCKRSTHQPVPSPMNSQTSTNAKVNLSGKLMKFQLNSVQKFDEENILRILQNKIEFEHYFQIDKGKKQKVLLLAVYQCLNGPTRLHKVLNIEGIIHNNSIRTILGKQVSSSKWTVFLYDVKLVLLAHRQDVPNLETSKMIVRYGDLFPCALYFKDHTAY

Variants of: B1
Test: DHFR protein-fragment complementation in yeast (Abp1-DHFR F[1,2] x partner-DHFR F[3]), deep mutational scanning, second methotrexate selection vs reference; S. cerevisiae, DHFR-PCA selection in liquid with methotrexate at 30 C, two 72 h selections (the score uses the second); reference = the pre-selection culture

Row | Variant | screen value
1 | chain 1 F564K | -2.62 DMS score: mean over two replicates of log2(f_test/f_ref + 0.5)/ln 2, minus the synonymous-codon median (not a log2 …
2 | chain 1 N549S | 1.83 DMS score: mean over two replicates of log2(f_test/f_ref + 0.5)/ln 2, minus the synonymous-codon median (not a log2 …
3 | chain 1 E547Q | -2.26 DMS score: mean over two replicates of log2(f_test/f_ref + 0.5)/ln 2, minus the synonymous-codon median (not a log2 …
4 | chain 1 F564M | 0.421 DMS score: mean over two replicates of log2(f_test/f_ref + 0.5)/ln 2, minus the synonymous-codon median (not a log2 …
5 | chain 1 Y543H | -0.676 DMS score: mean over two replicates of log2(f_test/f_ref + 0.5)/ln 2, minus the synonymous-codon median (not a log2 …
6 | chain 1 N586Q | -1.03 DMS score: mean over two replicates of log2(f_test/f_ref + 0.5)/ln 2, minus the synonymous-codon median (not a log2 …
7 | chain 1 S585C | 1.03 DMS score: mean over two replicates of log2(f_test/f_ref + 0.5)/ln 2, minus the synonymous-codon median (not a log2 …
8 | chain 1 E575S | -0.146 DMS score: mean over two replicates of log2(f_test/f_ref + 0.5)/ln 2, minus the synonymous-codon median (not a log2 …
9 | chain 1 K576T | -0.475 DMS score: mean over two replicates of log2(f_test/f_ref + 0.5)/ln 2, minus the synonymous-codon median (not a log2 …
10 | chain 1 F564R | -2.96 DMS score: mean over two replicates of log2(f_test/f_ref + 0.5)/ln 2, minus the synonymous-codon median (not a log2 …
11 | chain 1 E540I | -2.91 DMS score: mean over two replicates of log2(f_test/f_ref + 0.5)/ln 2, minus the synonymous-codon median (not a log2 …
12 | chain 1 N586G | 2.37 DMS score: mean over two replicates of log2(f_test/f_ref + 0.5)/ln 2, minus the synonymous-codon median (not a log2 …
13 | chain 1 I560M | 0.263 DMS score: mean over two replicates of log2(f_test/f_ref + 0.5)/ln 2, minus the synonymous-codon median (not a log2 …
14 | chain 1 S585T | -0.67 DMS score: mean over two replicates of log2(f_test/f_ref + 0.5)/ln 2, minus the synonymous-codon median (not a log2 …
15 | chain 1 G578N | 0.0866 DMS score: mean over two replicates of log2(f_test/f_ref + 0.5)/ln 2, minus the synonymous-codon median (not a log2 …
16 | chain 1 L582K | -2.94 DMS score: mean over two replicates of log2(f_test/f_ref + 0.5)/ln 2, minus the synonymous-codon median (not a log2 …
17 | chain 1 D542F | -0.772 DMS score: mean over two replicates of log2(f_test/f_ref + 0.5)/ln 2, minus the synonymous-codon median (not a log2 …
18 | chain 1 E547K | -2.17 DMS score: mean over two replicates of log2(f_test/f_ref + 0.5)/ln 2, minus the synonymous-codon median (not a log2 …
19 | chain 1 E555A | 1.03 DMS score: mean over two replicates of log2(f_test/f_ref + 0.5)/ln 2, minus the synonymous-codon median (not a log2 …
20 | chain 1 N549L | 0.763 DMS score: mean over two replicates of log2(f_test/f_ref + 0.5)/ln 2, minus the synonymous-codon median (not a log2 …
21 | chain 1 S589N | 1.22 DMS score: mean over two replicates of log2(f_test/f_ref + 0.5)/ln 2, minus the synonymous-codon median (not a log2 …
22 | chain 1 S589I | 0.802 DMS score: mean over two replicates of log2(f_test/f_ref + 0.5)/ln 2, minus the synonymous-codon median (not a log2 …
23 | chain 1 E573Q | -0.0881 DMS score: mean over two replicates of log2(f_test/f_ref + 0.5)/ln 2, minus the synonymous-codon median (not a log2 …
24 | chain 1 V554G | 0.246 DMS score: mean over two replicates of log2(f_test/f_ref + 0.5)/ln 2, minus the synonymous-codon median (not a log2 …
25 | chain 1 S585M | 0.746 DMS score: mean over two replicates of log2(f_test/f_ref + 0.5)/ln 2, minus the synonymous-codon median (not a log2 …

Row | Variant | screen value
26 | chain 1 D542K | -0.627 DMS score: mean over two replicates of log2(f_test/f_ref + 0.5)/ln 2, minus the synonymous-codon median (not a log2 …
27 | chain 1 F553L | 0.618 DMS score: mean over two replicates of log2(f_test/f_ref + 0.5)/ln 2, minus the synonymous-codon median (not a log2 …
28 | chain 1 G578H | 0.339 DMS score: mean over two replicates of log2(f_test/f_ref + 0.5)/ln 2, minus the synonymous-codon median (not a log2 …
29 | chain 1 N586A | 1.82 DMS score: mean over two replicates of log2(f_test/f_ref + 0.5)/ln 2, minus the synonymous-codon median (not a log2 …
30 | chain 1 V565A | -0.567 DMS score: mean over two replicates of log2(f_test/f_ref + 0.5)/ln 2, minus the synonymous-codon median (not a log2 …
31 | chain 1 D544Q | 0.66 DMS score: mean over two replicates of log2(f_test/f_ref + 0.5)/ln 2, minus the synonymous-codon median (not a log2 …
32 | chain 1 V565P | -0.0718 DMS score: mean over two replicates of log2(f_test/f_ref + 0.5)/ln 2, minus the synonymous-codon median (not a log2 …
33 | chain 1 V554E | 0.602 DMS score: mean over two replicates of log2(f_test/f_ref + 0.5)/ln 2, minus the synonymous-codon median (not a log2 …
34 | chain 1 E547S | -2.1 DMS score: mean over two replicates of log2(f_test/f_ref + 0.5)/ln 2, minus the synonymous-codon median (not a log2 …
35 | chain 1 G591C | -0.973 DMS score: mean over two replicates of log2(f_test/f_ref + 0.5)/ln 2, minus the synonymous-codon median (not a log2 …
36 | chain 1 L551I | -0.106 DMS score: mean over two replicates of log2(f_test/f_ref + 0.5)/ln 2, minus the synonymous-codon median (not a log2 …
37 | chain 1 N592W | -0.139 DMS score: mean over two replicates of log2(f_test/f_ref + 0.5)/ln 2, minus the synonymous-codon median (not a log2 …
38 | chain 1 S579N | 0.51 DMS score: mean over two replicates of log2(f_test/f_ref + 0.5)/ln 2, minus the synonymous-codon median (not a log2 …
39 | chain 1 T538I | 0.252 DMS score: mean over two replicates of log2(f_test/f_ref + 0.5)/ln 2, minus the synonymous-codon median (not a log2 …
40 | chain 1 W569Q | -2.81 DMS score: mean over two replicates of log2(f_test/f_ref + 0.5)/ln 2, minus the synonymous-codon median (not a log2 …
41 | chain 1 Y541V | -1.72 DMS score: mean over two replicates of log2(f_test/f_ref + 0.5)/ln 2, minus the synonymous-codon median (not a log2 …
42 | chain 1 E563N | -0.99 DMS score: mean over two replicates of log2(f_test/f_ref + 0.5)/ln 2, minus the synonymous-codon median (not a log2 …
43 | chain 1 P535E | 1.04 DMS score: mean over two replicates of log2(f_test/f_ref + 0.5)/ln 2, minus the synonymous-codon median (not a log2 …
44 | chain 1 E540K | -2.41 DMS score: mean over two replicates of log2(f_test/f_ref + 0.5)/ln 2, minus the synonymous-codon median (not a log2 …
45 | chain 1 E575M | -0.236 DMS score: mean over two replicates of log2(f_test/f_ref + 0.5)/ln 2, minus the synonymous-codon median (not a log2 …
46 | chain 1 E573I | -0.283 DMS score: mean over two replicates of log2(f_test/f_ref + 0.5)/ln 2, minus the synonymous-codon median (not a log2 …
47 | chain 1 V565N | -0.352 DMS score: mean over two replicates of log2(f_test/f_ref + 0.5)/ln 2, minus the synonymous-codon median (not a log2 …
48 | chain 1 D544V | 0.356 DMS score: mean over two replicates of log2(f_test/f_ref + 0.5)/ln 2, minus the synonymous-codon median (not a log2 …
49 | chain 1 V554F | 0.446 DMS score: mean over two replicates of log2(f_test/f_ref + 0.5)/ln 2, minus the synonymous-codon median (not a log2 …
50 | chain 1 N586C | 2.04 DMS score: mean over two replicates of log2(f_test/f_ref + 0.5)/ln 2, minus the synonymous-codon median (not a log2 …

Row | Variant | screen value
51 | chain 1 S589Q | 0.838 DMS score: mean over two replicates of log2(f_test/f_ref + 0.5)/ln 2, minus the synonymous-codon median (not a log2 …
52 | chain 1 D568Y | -2.08 DMS score: mean over two replicates of log2(f_test/f_ref + 0.5)/ln 2, minus the synonymous-codon median (not a log2 …
53 | chain 1 Y541S | -1.59 DMS score: mean over two replicates of log2(f_test/f_ref + 0.5)/ln 2, minus the synonymous-codon median (not a log2 …
54 | chain 1 S579C | -0.407 DMS score: mean over two replicates of log2(f_test/f_ref + 0.5)/ln 2, minus the synonymous-codon median (not a log2 …
55 | chain 1 E540M | -2.49 DMS score: mean over two replicates of log2(f_test/f_ref + 0.5)/ln 2, minus the synonymous-codon median (not a log2 …
56 | chain 1 Y587I | -0.578 DMS score: mean over two replicates of log2(f_test/f_ref + 0.5)/ln 2, minus the synonymous-codon median (not a log2 …
57 | chain 1 A545E | -0.673 DMS score: mean over two replicates of log2(f_test/f_ref + 0.5)/ln 2, minus the synonymous-codon median (not a log2 …
58 | chain 1 P535S | 0.342 DMS score: mean over two replicates of log2(f_test/f_ref + 0.5)/ln 2, minus the synonymous-codon median (not a log2 …
59 | chain 1 S585G | -1.85 DMS score: mean over two replicates of log2(f_test/f_ref + 0.5)/ln 2, minus the synonymous-codon median (not a log2 …
60 | chain 1 I560C | 0.328 DMS score: mean over two replicates of log2(f_test/f_ref + 0.5)/ln 2, minus the synonymous-codon median (not a log2 …
61 | chain 1 N549D | 0.4 DMS score: mean over two replicates of log2(f_test/f_ref + 0.5)/ln 2, minus the synonymous-codon median (not a log2 …
62 | chain 1 E555M | 0.105 DMS score: mean over two replicates of log2(f_test/f_ref + 0.5)/ln 2, minus the synonymous-codon median (not a log2 …
63 | chain 1 G578A | -0.527 DMS score: mean over two replicates of log2(f_test/f_ref + 0.5)/ln 2, minus the synonymous-codon median (not a log2 …
64 | chain 1 G591D | -0.157 DMS score: mean over two replicates of log2(f_test/f_ref + 0.5)/ln 2, minus the synonymous-codon median (not a log2 …
65 | chain 1 D544W | 0.0871 DMS score: mean over two replicates of log2(f_test/f_ref + 0.5)/ln 2, minus the synonymous-codon median (not a log2 …
66 | chain 1 N556M | -0.751 DMS score: mean over two replicates of log2(f_test/f_ref + 0.5)/ln 2, minus the synonymous-codon median (not a log2 …
67 | chain 1 N592S | 0.526 DMS score: mean over two replicates of log2(f_test/f_ref + 0.5)/ln 2, minus the synonymous-codon median (not a log2 …
68 | chain 1 S589H | 0.128 DMS score: mean over two replicates of log2(f_test/f_ref + 0.5)/ln 2, minus the synonymous-codon median (not a log2 …
69 | chain 1 T538L | 0.677 DMS score: mean over two replicates of log2(f_test/f_ref + 0.5)/ln 2, minus the synonymous-codon median (not a log2 …
70 | chain 1 D568N | -2.05 DMS score: mean over two replicates of log2(f_test/f_ref + 0.5)/ln 2, minus the synonymous-codon median (not a log2 …
71 | chain 1 E575C | -0.21 DMS score: mean over two replicates of log2(f_test/f_ref + 0.5)/ln 2, minus the synonymous-codon median (not a log2 …
72 | chain 1 T552K | -0.621 DMS score: mean over two replicates of log2(f_test/f_ref + 0.5)/ln 2, minus the synonymous-codon median (not a log2 …
73 | chain 1 E575L | -0.106 DMS score: mean over two replicates of log2(f_test/f_ref + 0.5)/ln 2, minus the synonymous-codon median (not a log2 …
74 | chain 1 S579K | -0.28 DMS score: mean over two replicates of log2(f_test/f_ref + 0.5)/ln 2, minus the synonymous-codon median (not a log2 …
75 | chain 1 E547H | -2.24 DMS score: mean over two replicates of log2(f_test/f_ref + 0.5)/ln 2, minus the synonymous-codon median (not a log2 …
